Values quoted from earlier work as cited in publication PMC8061042.

Target: MS1
Sequence (main, as listed by the source): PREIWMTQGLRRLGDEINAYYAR

Substance: MCL-1 (from UniProt Q07820)
- Kd: 1.9 nM
